According to patent US20260167713A1 (UCB, published 2026):
Changes are numbered by the printed parent chain.

T1: recombinant full-length human beta-catenin (human, UniProt P35222 2-781, biotinylated in the ELISA and SPR assays (sites not given); not biotinylated on the Western blots)
T1 construct: Tags are not described; also called β-catenin; biotinylated beta-catenin
T1 sequence: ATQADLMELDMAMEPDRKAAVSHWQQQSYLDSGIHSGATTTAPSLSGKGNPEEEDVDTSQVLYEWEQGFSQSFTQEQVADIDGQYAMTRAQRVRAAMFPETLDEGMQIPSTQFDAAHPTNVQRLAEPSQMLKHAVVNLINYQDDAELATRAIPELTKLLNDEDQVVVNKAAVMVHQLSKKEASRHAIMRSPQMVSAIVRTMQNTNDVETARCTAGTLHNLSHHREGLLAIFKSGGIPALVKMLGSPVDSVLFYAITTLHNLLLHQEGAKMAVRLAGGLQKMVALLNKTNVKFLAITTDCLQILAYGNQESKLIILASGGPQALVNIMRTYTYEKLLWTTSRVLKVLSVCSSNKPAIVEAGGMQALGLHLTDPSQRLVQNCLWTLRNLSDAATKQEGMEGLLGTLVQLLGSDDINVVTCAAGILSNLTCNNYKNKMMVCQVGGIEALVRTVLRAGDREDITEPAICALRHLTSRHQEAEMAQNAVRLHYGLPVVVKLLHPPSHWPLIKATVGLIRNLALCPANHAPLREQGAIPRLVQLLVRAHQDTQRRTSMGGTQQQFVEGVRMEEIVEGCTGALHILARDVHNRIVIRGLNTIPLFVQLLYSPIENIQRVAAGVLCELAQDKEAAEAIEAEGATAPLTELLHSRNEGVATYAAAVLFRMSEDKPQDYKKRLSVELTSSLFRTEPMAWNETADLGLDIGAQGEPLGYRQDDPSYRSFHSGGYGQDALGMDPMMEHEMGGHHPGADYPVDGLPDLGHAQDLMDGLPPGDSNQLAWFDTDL

B1: intrabody O (VHH expressed intracellularly) (VHH, not shown: small tags and cut ends)
VHH: QVQLVQSGGGLVQAGDSLRLACAASEGTFRTNVMGWFRQAPGKEREFVAAISWSGGITHYSNSVKGRFAISRDNAKNTVYLQMNSLKPEDTAVYYCAADPSTTPWNLRVRVNEYEYWGQGTQVTVSS
B2: intrabody S (VHH expressed intracellularly) (VHH, not shown: small tags and cut ends)
VHH: QVQLVESGGGLVQAGGSLRLSCAASGVSFSRTSLGWFRQAPGKEREFVSVISWIGGTTYYADSLKGRFTISRDNAKSTVYLQMNSLKPEDTALYYCAISNGVLPRTEGAFASWGQGTQVTVSS
B3: intrabody V1 (VHH expressed intracellularly) (VHH, not shown: small tags and cut ends)
VHH: QVQLVQSGGGLVQPGGSLRLSCAASGSISSNNVMGWYRQGPGKQREFVASITDSDLANYAASVKGRFTISRDNAKNTVNLQMNSLRPEDTDVYYCRLTMMTYPPTISWGQGTQVTVSS
B4: intrabody V3 (VHH expressed intracellularly) (VHH, not shown: small tags and cut ends)
VHH: B3 VHH with Q6E, S27T, I51V, D91G, M99I
B5: intrabody V2 (VHH expressed intracellularly) (VHH, not shown: small tags and cut ends)
VHH: B3 VHH with T105I
B6: IBO.CDRAAA (2)-scFc (Fc fusion, not shown: a dimerising Fc or GST; small tags and cut ends)
VHH: B1 VHH with R108A, V109A, R110A
notes: CDR3 mutant of O in the VHH-scFc format; also called VH-O.CDRAAA(2)
B7: IBO.CDRAAA (1)-scFc (Fc fusion, not shown: a dimerising Fc or GST; small tags and cut ends)
VHH: B1 VHH with P104A, W105A, N106A
notes: CDR3 mutant control of O in the VHH-scFc format; also called VH-O.CDRAAA(1)
B8: IBS.CDRAAA-scFc (Fc fusion, not shown: a dimerising Fc or GST; small tags and cut ends)
VHH: B2 VHH with E6Q, R105A, E107A, F110A
notes: CDR3 mutant control of S in the VHH-scFc format; also called VH-S.CDRAAA
B9: IBV1.CDRAAA-scFc (Fc fusion, not shown: a dimerising Fc or GST; small tags and cut ends)
VHH: B3 VHH with Y102A, P103A, P104A
notes: CDR3 mutant control of V1 in the VHH-scFc format; also called VH-V1.CDRAAA
B10: IBO-scFc (Fc fusion, not shown: a dimerising Fc or GST; large carriers; small tags and cut ends)
VHH: B1 VHH
notes: Single chain mouse IgG Fc construct; It is placed under this molecule; also called VH-O; biotinylated-'O'
B11: IBS-scFc (Fc fusion, not shown: a dimerising Fc or GST; large carriers; small tags and cut ends)
VHH: B2 VHH
notes: Single chain mouse IgG Fc construct, used as transient HEK293 supernatant; also called VH-S
B12: IBV1-scFc (Fc fusion, not shown: a dimerising Fc or GST; large carriers; small tags and cut ends)
VHH: B3 VHH
notes: Single chain mouse IgG Fc construct, used as transient HEK293 supernatant; also called VH-V1; VHH-scFc of V1
B13: IBV2-scFc (Fc fusion, not shown: a dimerising Fc or GST; large carriers; small tags and cut ends)
VHH: B3 VHH with T105I
notes: Single chain mouse IgG Fc construct, used as transient HEK293 supernatant; also called VH-V2
B14: IBV3-scFc (Fc fusion, not shown: a dimerising Fc or GST; large carriers; small tags and cut ends)
VHH: B3 VHH with Q6E, S27T, I51V, D91G, M99I
notes: Single chain mouse IgG Fc construct, used as transient HEK293 supernatant; also called VH-V3

Target: endogenous beta-catenin (HEK293 cells) (human) (UniProt P35222)
Test: cell-based or functional assay

Row | firefly luciferase activity signal, PPSP-stimulated HEK293 TCF/LEF reporter bioassay (% of control VHH signal) | inhibition of beta-catenin co-transcriptional activity, HEK293 bioassay stimulated with LiCl2, against IBO.CDRAAA (1) | inhibition of beta-catenin co-transcriptional activity, HEK293 bioassay stimulated with Wnt3a-conditioned media, against IBO.CDRAAA (1) | percentage inhibition of firefly luciferase production in the bioassay, IBO against IBO.CDRAAA (1) | Binder
1 | < 25 | 65% | 66% | 83% | B1
2 | < 25 |  |  |  | B2
3 | < 25 |  |  |  | B3
4 | < 25 |  |  |  | B4
5 | < 25 |  |  |  | B5

Target: T1, recombinant full-length human …
Test: ELISA: biotinylated beta-catenin captured on streptavidin plates, VHH-scFc in half-log dilutions from 32 nM, anti-mouse Fc HRP, delta OD 630/490 nm [lower panel]
Description: FIG. 6: beta-catenin binding ELISA results for parent VHHs and CDR3 mutants. […] The plates were read at 630 and 490 nm and ΔOD recorded. The negative control is a ‘no DNA’ control transfection culture supernatant.
Beta-catenin binding ELISA: ELISA plates were coated with streptavidin ([…]). Biotinylated beta-catenin (1 mg/mL) was added in PBS, for 30 minutes. Blocked samples were added (phage samples or transient VHHscFc samples). After an hour, bound samples were detected using a suitable antibody at 1 in 5,000 dilution in PBS (containing 3% BSA). Detection antibodies were goat anti-M13-HRP (GE Healthcare) or goat anti-mouse Fc HRP (Jackson ImmunoResearch).
The binding of the parent intrabodies and CDR3 mutants to recombinant β-catenin was also tested by ELISA. […] IBV1.CDRAAA and IBS.CDRAAA also appeared to be suitable CDR3 mutant controls for their respective parent except for their lower expression levels within the bioassay. This is not uncommon in conventional antibody expression and single point mutations in antibody CDRs leading to over a 100-fold reduction in expression have been previously reported.

Row | binding result | Binder
6 | binds | B6
7 | no binding (tested: 32 nM) | B7
8 | no binding (tested: 32 nM) | B8

Target: T1, recombinant full-length human …
Test: Western blot of reduced recombinant beta-catenin on PVDF, probed with IBV1.CDRAAA-scFc transient supernatant at 16 nM, detected with anti-mouse Fc HRP
Description: FIG. 5: Reducing anti-beta-catenin Western blots probed by the intrabodies. Gel A:) IBV1-scFc (23 nM), Gel B: IBV2-scFc (110 nM), Gel C: IBV3-scFc (85 nM) and Gel D: IBV1.CDRAAA-scFc (16 nM) transient supernatants. Any binding was detected with t anti-mouse Fc HRP antibody. In each gel, Lane 1) 15 ng beta-catenin, Lane 2) 7.5 ng beta-catenin, Lane 3) 3.75 ng beta-catenin.
The presence of beta-catenin was successfully detected by all three parent VHHs and not by the control mutant IBV1.CDRAAA.

Row | binding result | Binder
9 | no binding (tested: 16 nM) | B9

Target: T1, recombinant full-length human …
Test: SPR (Biacore T100), biotinylated beta-catenin captured on streptavidin, VHH-scFc in solution
Description: SPR-Affinity measurements: Affinity measurements were performed using a Biacore™T100. Streptavidin was immobilised onto the carboxymethylated dextran coated gold surface of a CM5 sensor chip using amine coupling chemistry, as per manufacture's instructions. The concentrations of streptavidin used in flow cells 1˜4 respectively were 0 μg/mL, 5 μg/mL, 15 μg/mL, 45 μg/mL in 10 mM NaOAc pH5. Biotinylated beta-catenin was then captured on flow cells 2-4 whilst flow cell 1 was the control reference cell. Samples of VHH-scFc at 1 in 2, 1 in 5, 1 in 10, 1 in 20 and 1 in 40 dilutions in HBS-EP were passed over all flow cells for 5 minutes at 30 μL/minute. Buffer blanks were run between every sample set and control transfection supernatant samples were included in each run. Between each sample the chip was regenerated by the addition of 30 μL of 2M guanidine hydrochloride followed by 30 μL of 40 mM HCl. Affinity constants were determined by the fitting of resulting data using BiaEvalution software with a Langmuir 1:1 association method, associations were rejected if the Chi2 value was greater than 1; if the residual data points were not randomly distributed or if the residuals were greater than +/−2 RU. The association data were plotted for the most dilute samples which still gave a RU capture response of at least 40RU. A minimum of four different combinations of dilutions and different beta-catenin coated flow cells were used to calculate association ‘on-rate’ (ka) or dissociation data ‘off-rate’ (kd), and used to calculate KD=kd/ka.

Row | Kd | koff | kon | Binder
10 | 3.65 nM | 0.00026 s⁻¹ | 71100 M⁻¹ s⁻¹ | B10
11 | 3.78 nM | 0.000248 s⁻¹ | 65600 M⁻¹ s⁻¹ | B11
12 | 6.49 nM | 0.000163 s⁻¹ | 25100 M⁻¹ s⁻¹ | B12
13 | 4.47 nM | 0.000165 s⁻¹ | 36900 M⁻¹ s⁻¹ | B13
14 | 4.38 nM | 0.000169 s⁻¹ | 38500 M⁻¹ s⁻¹ | B14

Target: T1, recombinant full-length human …
Test: ELISA on captured biotinylated beta-catenin

Row | Kd | Binder
15 | < 10 nM | B10
16 | < 10 nM | B11
17 | < 10 nM | B12
18 | < 10 nM | B13
19 | < 10 nM | B14
